This assay addresses recombinant human IL-18 (human) (UniProt Q14116). Kind of assay: cell-based or functional assay.

Sequence of recombinant human IL-18 (human) (Q14116 37-193 limits assumed): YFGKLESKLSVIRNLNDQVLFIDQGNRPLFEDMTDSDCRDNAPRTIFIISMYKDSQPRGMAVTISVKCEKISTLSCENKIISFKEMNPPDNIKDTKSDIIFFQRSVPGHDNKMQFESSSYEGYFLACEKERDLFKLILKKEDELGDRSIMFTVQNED

As to “His6-tagged IL-18BPa transiently expressed in COS7 cells (IL-18BP-His6) (from UniProt O95998 31-194)”, the IFN-γ (ng/ml); bioassay with human IL-18 (20 ng/ml), LPS (2 µg/ml) and murine splenocytes (control 7.5) stood at 0 ng/mL.

As to “PNGase-treated IL-18BP-His6 (deglycosylated IL-18BPa-His6) (from UniProt O95998 31-194)”, the IFN-γ (ng/ml); bioassay with human IL-18 (20 ng/ml), LPS (2 µg/ml) and murine splenocytes (control 7.5) came out at 0 ng/mL.

(Values after patent US20070081975A1.)
